Measured values reported in patent publication US7105166.

What was measured:
CTLA4Ig (human) [1] = test: 125I-B7Ig (4 nM) on plate-coated CTLA4Ig
CTLA4Ig (human) [2] = test: solid phase competition of 125I-B7Ig binding to immobilized CTLA4Ig
CTLA4Ig (human) [3] = test: Scatchard analysis of competition data, 125I-B7Ig on immobilized CTLA4Ig
[4] = target: CD28Ig (human) [IgG part: P01857]; test: inhibition of 125I-B7Ig binding to immobilized CD28Ig
[5] = target: CD28 expressed on transfected cells (human) (UniProt P10747); test: inhibition of 125I-B7Ig binding to cell surface expressed CD28
[6] = target: B7 antigen (B7-1, CD80) expressed on cells (human) (UniProt P33681); test: cell-based or functional assay
B7Ig (human) = B7Ig (human) (UniProt P33681); test: solid phase competition of 125I-B7Ig binding to immobilized CTLA4Ig

Question: What does the source list for “B7Ig (from UniProt P33681 35-249; P01857 99-330) (Fc fusion)”?
Answer: radioactivity bound to wells treated without competitor (CTLA4Ig (human) [1]): 28300 cpm; IC50 (CTLA4Ig (human) [2]): 175 nM; Kd (CTLA4Ig (human) [3]): 12 nM

Question: What does the source list for mAb 9.3 (antibody)?
Answer: inhibition of ^125I-B7Ig binding [4]: > 90%; inhibition of ^125I-B7Ig binding [5]: > 90%

Question: How did the inhibition of Th-induced IgM production [6] turn out when mAb BB-1 (antibody) was run?
Answer: The inhibition of Th-induced IgM production was 65%.

Question: What about the IC50 (B7Ig (human)) of the same substance?
Answer: The IC50 was 22 nM.
